Here are results for 16 molecules from US20130052176, “APTAMER FOR NGF AND USE THEREOF” (SHIONOGI & CO., LTD, published 2013).

The target of data set [1] is T1, NGF (nerve growth factor) (human, UniProt P01138 P01138:122-241). In words: cell_activity; neurite outgrowth, NGF 0.38 nM; SPR binding; TF-1 IC50 0.1 nM. The settings on record: tags: amine-coupled to CM5 chip in SPR; soluble in cell assays; chain copies: 2.
In data set [2] the target is T1, NGF (nerve growth factor). Nature of the data set: cell_activity; neurite outgrowth, NGF 1.1 nM; SPR binding; TF-1 IC50 3.4 nM. The settings on record: tags: amine-coupled to CM5 chip in SPR; soluble in cell assays; chain copies: 2. In general terms: SPR reads the build-up and loss of mass on a sensor chip optically.
Data set [3] addresses T1, NGF (nerve growth factor). In words: cell_activity; neurite outgrowth, NGF 0.38 nM; TF-1 IC50 0.348 nM. The settings on record: tags: human NGF; chain copies: 2. How it is done: (§1) The neurite outgrowth inhibitory activity of the aptamer obtained in Example 1 was evaluated by using Neuroscreen-1 cell, which is a subclone of PC-12 cells.
(§2) The cells (2500 cells per well) were cultured for one day in an RPMI-1640 medium containing 2.5% horse serum and 1.25% fetal bovine serum in a 96 well flat-bottom plate coated with collagen type IV. […] Two days later, the cytoplasm and nuclei were stained using Cellomics Neurite Outgrowth Kit (manufactured by Thermo Scientific), and neurite length per cell was measured by Cellomics ArrayScan VTI (manufactured by Thermo Scientific). With the neurite length per cell obtained by the addition of NGF alone as inhibitory activity 0%, and that of the cell obtained by NGF free culture for 2 days as inhibitory activity 100%, the inhibitory activity of the aptamer was calculated from the neurite length per cell obtained by culturing with the addition of NGF and the aptamer in mixture. When the inhibitory activity was 0% or below, ‘0%’ is indicated.

Data set [4] addresses T1, NGF (nerve growth factor). Nature of the data set: cell_activity; neurite outgrowth, NGF 1.1 nM; SPR binding; blocks NGF-TrkA; TF-1 IC50 8.0 nM. The settings on record: tags: amine-coupled to CM5 chip in SPR; soluble in cell assays; chain copies: 2. As for the experimental part: as §1, §2
The target in data set [5] is T1, NGF (nerve growth factor). Nature of the data set: cell_activity; neurite outgrowth, NGF 1.1 nM; TF-1 IC50 5.3 nM. The conditions noted are these: tags: human NGF; chain copies: 2. As for the experimental part:
as §1, §2

The target of data set [6] is T1, NGF (nerve growth factor). Nature of the data set: cell_activity; neurite outgrowth, NGF 1.1 nM. The conditions noted are these: tags: human NGF; chain copies: 2. As for the experimental part: as §1, §2
The target of data set [7] is T1, NGF (nerve growth factor). Nature of the data set: cell_activity; neurite outgrowth, NGF 1.1 nM; SPR binding; TF-1 IC50 5.4 nM. The conditions noted are these: tags: amine-coupled to CM5 chip in SPR; soluble in cell assays; chain copies: 2. As for the experimental part:
as §1, §2

Data set [8] addresses T1, NGF (nerve growth factor). Nature of the data set: cell_activity; neurite outgrowth, NGF 1.1 nM; SPR binding; blocks NGF-TrkA and NGF-p75; TF-1 IC50 2.1 nM. The settings on record: tags: amine-coupled to CM5 chip in SPR; soluble in cell assays; chain copies: 2. How it is done:
as §1, §2

Data set [9] addresses T1, NGF (nerve growth factor). Nature of the data set: cell_activity; neurite outgrowth, NGF 1.1 nM; SPR binding; TF-1 IC50 6.3 nM. The conditions noted are these: tags: amine-coupled to CM5 chip in SPR; soluble in cell assays; chain copies: 2. How it is done: as §1, §2
For data set [10], the target named is T1, NGF (nerve growth factor). Nature of the data set: cell_activity; neurite outgrowth, NGF 1.1 nM; SPR binding; blocks NGF-TrkA and NGF-p75; TF-1 IC50 1.3 nM. The conditions noted are these: tags: amine-coupled to CM5 chip in SPR; soluble in cell assays; chain copies: 2. How it is done: as §1, §2
The target of data set [11] is T1, NGF (nerve growth factor). In words: cell_activity; neurite outgrowth, NGF 1.1 nM; TF-1 IC50 6.2 nM. The conditions noted are these: tags: human NGF; chain copies: 2. As for the experimental part: as §1, §2
Data set [12] has as its target T1, NGF (nerve growth factor). Nature of the data set: cell_activity; neurite outgrowth, NGF 1.1 nM; SPR binding; blocks NGF-TrkA and NGF-p75. The settings on record: tags: amine-coupled to CM5 chip in SPR; soluble in cell assays; chain copies: 2. As for the experimental part:
as §1, §2

The target in data set [13] is T1, NGF (nerve growth factor). Nature of the data set: cell_activity; neurite outgrowth, NGF 1.1 nM; SPR binding; TF-1 IC50 <1.0 nM. The conditions noted are these: tags: amine-coupled to CM5 chip in SPR; soluble in cell assays; chain copies: 2.

T1 sequence (P01138 122-241, one chain of several): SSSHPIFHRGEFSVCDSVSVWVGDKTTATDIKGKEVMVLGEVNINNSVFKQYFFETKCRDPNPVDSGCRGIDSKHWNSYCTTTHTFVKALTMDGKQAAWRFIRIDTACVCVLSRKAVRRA

B1: aptamer ID 26(1) (ssRNA)
RNA: GGGAGACUCGCCAGAGUUGAAAGAAACCCAAAUAAGUGUGCGCAC
modifications: 2'-F pyrimidines; 2'-OMe purines except 2'-OH at 3,5,19-23,25; 5' idT and 3' idT
The term IC50 denotes the point on the concentration scale where inhibition reaches its midpoint. A low value points to greater potency in that assay. In data set [1], B1 returned an IC50 of 0.06 nM. The molecule GGGAGACUCGCCAGAGUUGAAAGAAACCCAAAUAAGUGUGCGCAC (ssRNA, 2'-F pyrimidines; 2'-OMe at 30-32,34,35; other purines 2'-OH) [aptamer ID 26(5)] yielded an IC50 in [2] of under 1 nM.

B2: aptamer ID 26(68) (ssRNA)
RNA: GGGAGACUCGCCAGAGUUGAAAGAAACCCAAAUAAGUGUGCGCAC
modifications: 5' PEG80TS2 via ssH linker; 3' idT; 2'-F all pyrimidines; 2'-OMe purines except ribo g3,g19,a20,a26
Turning to B2, the IC50 in data set [3] stood at 0.128 nM.

B3: aptamer ID 55 (ssRNA)
RNA: GGGAUAAAAAUAGAGUUUGAUAAACACCUGUAUUAAAACCC
modifications: 5' cholesterol; 3' idT; 2'-F pyrimidines and a37,a38; 2'-OMe other purines except 2'-OH at 4,7,30
As for B3, the IC50 in data set [4] came to 9.8 nM.

B4: aptamer ID 57(6) (mixed)
mixed: GGGAUAAAAAUAGAGTUUGATAAACACCUGUAUUAAAACCC
modifications: as ID 57 (5' cholesterol; 3' idT; dT16,dT21; 2'-F other pyrimidines and a37,a38; 2'-OMe purines except ribo a4,a7,g30) plus PS between 22 and 23
Take B4: the IC50 in [5] was under 3 nM.

B5: aptamer ID 57 (mixed)
mixed: GGGAUAAAAAUAGAGTUUGATAAACACCUGUAUUAAAACCC
modifications: 5' cholesterol; 3' idT; dT16,dT21; 2'-F other pyrimidines and a37,a38; 2'-OMe purines except ribo a4,a7,g30
In data set [6], B5 yielded an IC50 of under 3 nM.

B6: aptamer ID 60 (mixed)
mixed: GGGAUAAAAAUAGAGTUUGATAUACACCUGUAUUAAAACCC
modifications: 5' cholesterol; 3' idT; 2'-F pyrimidines (except dT at 16,21) and a37,a38; 2'-OMe other purines except 2'-OH at 4,7,30
In the case of B6, in [7], the IC50 was under 3 nM.

B7: aptamer ID 57(7) (mixed)
mixed: GGGAUAAAAAUAGAGTUUGATAAACACCUGUAUUAAAACCC
modifications: as ID 57 (5' cholesterol; 3' idT; dT16,dT21; 2'-F other pyrimidines and a37,a38; 2'-OMe purines except ribo a4,a7,g30) plus PS between 23 and 24
Take B7: in data set [5], the half-maximal inhibitory concentration (IC50) was under 3 nM.

B8: aptamer ID 63 (mixed)
mixed: GGGAUAAAAAUAGAGTUUGATAAACACCUGUAUUAAAACCC
modifications: 5' cholesterol; 3' idT; 2'-F pyrimidines (except dT at 16,21); 2'-OMe other purines except 2'-OH at 4,7,30,37,38
B8 gave an IC50 in [8] of under 3 nM.

B9: aptamer ID 62 (mixed)
mixed: GGGAUAAAAAUAGAGTUUGATAAACACCUGUAUUAAAACCC
modifications: 5' cholesterol; 3' idT; 2'-F pyrimidines (except dT at 16,21) and a37; 2'-OMe other purines except 2'-OH at 4,7,30,38
Consider B9, for which the IC50 in data set [9] came to 4.6 nM.

B10: aptamer ID 61 (mixed)
mixed: GGGAUAAAAAUAGAGTUUGATAAACACCUGUAUUAAAACCC
modifications: 5' cholesterol; 3' idT; 2'-F pyrimidines (except dT at 16,21) and a38; 2'-OMe other purines except 2'-OH at 4,7,30,37
B10: the IC50 in data set [10] was under 3 nM.

B11: aptamer ID 57(2) (mixed)
mixed: GGGAUAAAAAUAGAGTUUGATAAACACCUGUAUUAAAACCC
modifications: as ID 57 (5' cholesterol; 3' idT; dT16,dT21; 2'-F other pyrimidines and a37,a38; 2'-OMe purines except ribo a4,a7,g30) plus PS between 16 and 17
In data set [11], B11 displayed an IC50 of under 3 nM.

B12: aptamer ID 57(8) (mixed)
mixed: GGGAUAAAAAUAGAGTUUGATAAACACCUGUAUUAAAACCC
modifications: as ID 57 (5' cholesterol; 3' idT; dT16,dT21; 2'-F other pyrimidines and a37,a38; 2'-OMe purines except ribo a4,a7,g30) plus PS between 24 and 25
B12: the IC50 in [11] is under 3 nM.

B13: aptamer ID 56 (mixed)
mixed: GGGAUAAAAAUAGAGUUUGATAAACACCUGUAUUAAAACCC
modifications: 5' cholesterol; 3' idT; 2'-F pyrimidines (except dT at 21) and a37,a38; 2'-OMe other purines except 2'-OH at 4,7,30
As to B13, the IC50 in [12] was 4.1 nM. This counts as single-digit nanomolar. In [13], GGGAGACUCGCCAGAGUUGAAAGAAACCCAAAUAAAGUGUGCGCACA (ssRNA, 2'-F at all pyrimidines) [aptamer ID 25] registered an IC50 of under 1 nM.

B14: aptamer ID 48 (ssRNA)
RNA: GGGAGAACUUCGACCAGAGUCGAUAACGAACAAAACUCCCAAAUAUGUGCGCAUAC
modifications: 2'-F all pyrimidines
Regarding B14, in data set [6], half-maximal inhibition (IC50) was put at 1.8 nM.
